Target: spike protein (Spike, S protein) of SARS-CoV-2 (UniProt P0DTC2 14-1273)
Experiment: SPR

B1: antigen-binding unit ABU-174 (antibody, V domains shown)
VH: QVQLQQWGAGLLKPSETLSLTCAVYGGSFSDYYWNWIRRPPGKGLEWIGEITHSGSTNYNPSLKSRVTISVDTSKNQFSLKLSSVTAADTAVYYCARGQGYGRVLLWFGEWGQGTLVTVSS
VL: EIVLTQSPATLSLSPGERATLSCRASQSVSTYLAWYQQKPGQAPRLLIYDASNRATGIPARFSGSGSGTDFTLTISSLEPEDFAVYYCQQRSNWITFGQGTRLEIK
  Kd: 285 pM
